Test results: patent publication EP4725969A1 (Latticon (Suzhou) Biopharmaceuticals Co., Ltd., dated 2024)
Changes are numbered by the printed parent chain.

B1: 2126-Hu-H22 (antibody, IgG1, V domains shown)
VH: QVQLVQSGGELKKPGASVKVSCKASGYTFTDYSMHWVRQAPGQGLEWMGWINTETGEPTYADDFKGRFVFSLDTSVSTAYLQISSLKAEDTAVYFCVRVGRYDYAMDYWGQGTTVTVSS
VL: DIQMTQSPSSLSASVGDRVTITCKASQDVYTAVAWYQQKPGKAPKLLINSASYRYTGVPSRFSGSGSGTDFTLTISSLQPEDFATYYCQQHYSTPPTFGGGTKVEIK
notes: IgG1/Cκ
B2: 2126-Hu-H35 (antibody, IgG1, V domains shown)
VH: B1 VH with G9S, F64V
VL: B1 VL
notes: IgG1/Cκ
B3: 2126-Hu-H47 (antibody, IgG1, name in Kabat numbering, V domains shown)
VH: B1 VH with G9S, R101F
VL: B1 VL
notes: IgG1/Cκ
B4: 2126-Hu-H48 (antibody, IgG1, name in Kabat numbering, V domains shown)
VH: B1 VH with G9S, R101K
VL: B1 VL
notes: IgG1/Cκ
B5: 2126-Hu-H40 (antibody, IgG1, V domains shown)
VH: B1 VH with G9S, L72R
VL: B1 VL
notes: IgG1/Cκ
B6: 2126-Hu-H28 (antibody, IgG1, V domains shown)
VH: B1 VH with G9S, E54Y
VL: B1 VL
notes: IgG1/Cκ
B7: 2126-Hu-H44 (antibody, IgG1, V domains shown)
VH: B1 VH with G9S, I83L
VL: B1 VL
notes: IgG1/Cκ
B8: 2126-Hu-H37 (antibody, IgG1, V domains shown)
VH: B1 VH with G9S, V69S
VL: B1 VL
notes: IgG1/Cκ
B9: 2126-Hu-H23 (antibody, IgG1, V domains shown)
VH: B1 VH with G9S, V18L
VL: B1 VL
notes: IgG1/Cκ
B10: 2126-Hu-H30 (antibody, IgG1, name in Kabat numbering, V domains shown)
VH: B1 VH with G9S, E57N
VL: B1 VL
notes: IgG1/Cκ
B11: 2126-Hu-H43 (antibody, IgG1, V domains shown)
VH: B1 VH with G9S, V76T
VL: B1 VL
notes: IgG1/Cκ
B12: 2126-Hu-H46 (antibody, IgG1, V domains shown)
VH: B1 VH with G9S, F95Y
VL: B1 VL
notes: IgG1/Cκ
B13: 2126-Hu-H34 (antibody, IgG1, V domains shown)
VH: B1 VH with G9S, D63N
VL: B1 VL
notes: IgG1/Cκ
B14: 2126-Hu-H27 (antibody, IgG1, V domains shown)
VH: B1 VH with G9S, E54G
VL: B1 VL
notes: IgG1/Cκ
B15: 2126-Hu-H31 (antibody, IgG1, V domains shown)
VH: B1 VH with G9S, E57D
VL: B1 VL
notes: IgG1/Cκ
B16: 2126-Hu-H26 (antibody, IgG1, name in Kabat numbering, V domains shown)
VH: B1 VH with G9S, E54D
VL: B1 VL
notes: IgG1/Cκ
B17: 2126-Hu-H25 (antibody, IgG1, V domains shown)
VH: B1 VH with G9S, E54N
VL: B1 VL
notes: IgG1/Cκ
B18: 2126-Hu-H50 (antibody, IgG1, V domains shown)
VH: B1 VH with G9S, R101Y
VL: B1 VL
notes: IgG1/Cκ
B19: 2126-Hu-H24 (antibody, IgG1, V domains shown)
VH: B1 VH with G9S, S33A
VL: B1 VL
notes: IgG1/Cκ
B20: 2126-Hu-H49 (antibody, IgG1, name in Kabat numbering, V domains shown)
VH: B1 VH with G9S, R101N
VL: B1 VL
notes: IgG1/Cκ
B21: 2126-Hu-H32 (antibody, IgG1, V domains shown)
VH: B1 VH with G9S, E57S
VL: B1 VL
notes: IgG1/Cκ
B22: 2126-Hu-H42 (antibody, IgG1, V domains shown)
VH: B1 VH with G9S, V76K
VL: B1 VL
notes: IgG1/Cκ
B23: 2126-Hu-H39 (antibody, IgG1, V domains shown)
VH: B1 VH with G9S, L72V
VL: B1 VL
notes: IgG1/Cκ
B24: 2126-Hu-H33 (antibody, IgG1, V domains shown)
VH: B1 VH with G9S, D63K
VL: B1 VL
notes: IgG1/Cκ
B25: 2126-Hu-H45 (antibody, IgG1, V domains shown)
VH: B1 VH with G9S, I83M
VL: B1 VL
notes: IgG1/Cκ
B26: 2126-Hu-H29 (antibody, IgG1, V domains shown)
VH: B1 VH with G9S, E54I
VL: B1 VL
notes: IgG1/Cκ
B27: 2126-Hu-H36 (antibody, IgG1, V domains shown)
VH: B1 VH with G9S, V69T
VL: B1 VL
notes: IgG1/Cκ
B28: 2126-Hu-H38 (antibody, IgG1, V domains shown)
VH: B1 VH with G9S, F70I
VL: B1 VL
notes: IgG1/Cκ

What follows are binders tested against T1, recombinant human HER2 extracellular domain protein (human, UniProt P04626 23-652) (assay: BLI, Protein A capture).
T1 construct: range 23-652; Range is printed for the immunogen/panning protein; also called ErbB2; recombinant HER2 protein
With B1 the Kd was 5.38 nM, the koff was 0.000543 s⁻¹ and the kon was 101000 M⁻¹ s⁻¹. B2 was tested, and the Kd was 5.87 nM, the koff was 0.000603 s⁻¹ and the kon was 103000 M⁻¹ s⁻¹. With B3 the Kd was 17.8 nM, the koff was 0.00362 s⁻¹ and the kon was 204000 M⁻¹ s⁻¹. Binder B4 has a Kd of 34.1 nM, a koff of 0.00392 s⁻¹ and a kon of 115000 M⁻¹ s⁻¹. B5 showed a Kd of 1.92 nM, a koff of 0.0002 s⁻¹ and a kon of 104000 M⁻¹ s⁻¹. B6 gave a Kd of 3.08 nM, a koff of 0.00035 s⁻¹ and a kon of 114000 M⁻¹ s⁻¹. B7 gave a Kd of 5.3 nM, a koff of 0.000562 s⁻¹ and a kon of 106000 M⁻¹ s⁻¹. B8 was tested, and the Kd was 5.31 nM, the koff was 0.000545 s⁻¹ and the kon was 103000 M⁻¹ s⁻¹. Work on B9 yielded a Kd of 5.9 nM, a koff of 0.000623 s⁻¹ and a kon of 106000 M⁻¹ s⁻¹. B10 was tested, and the Kd was 13.1 nM, the koff was 0.0015 s⁻¹ and the kon was 115000 M⁻¹ s⁻¹. In the case of B11, the Kd is reported as 7.2 nM and the kon is reported as 107000 M⁻¹ s⁻¹. For B12, the Kd was 5.7 nM, the koff was 0.000597 s⁻¹ and the kon was 105000 M⁻¹ s⁻¹. In the case of B13, the Kd is reported as 4.31 nM, the koff is reported as 0.000454 s⁻¹ and the kon is reported as 105000 M⁻¹ s⁻¹. B14 gave a Kd of 1.67 nM, a koff of 0.000164 s⁻¹ and a kon of 97900 M⁻¹ s⁻¹. B15 showed a Kd of 8.81 nM, a koff of 0.000942 s⁻¹ and a kon of 107000 M⁻¹ s⁻¹. For B16, the Kd was 11.1 nM, the koff was 0.00119 s⁻¹ and the kon was 107000 M⁻¹ s⁻¹. In the case of B17, the Kd is reported as 7.57 nM, the koff is reported as 0.000749 s⁻¹ and the kon is reported as 99000 M⁻¹ s⁻¹. B18 showed a Kd of 8 nM, a koff of 0.000902 s⁻¹ and a kon of 113000 M⁻¹ s⁻¹. B19 was tested, and the Kd was 7.7 nM, the koff was 0.00083 s⁻¹ and the kon was 108000 M⁻¹ s⁻¹. B20 gave a Kd of 35.9 nM, a koff of 0.00533 s⁻¹ and a kon of 149000 M⁻¹ s⁻¹. In the case of B21, the Kd is reported as 8.96 nM, the koff is reported as 0.000998 s⁻¹ and the kon is reported as 111000 M⁻¹ s⁻¹. Work on B22 yielded a Kd of 5.11 nM, a koff of 0.000546 s⁻¹ and a kon of 107000 M⁻¹ s⁻¹. In the case of B23, the Kd is reported as 4.87 nM, the koff is reported as 0.000509 s⁻¹ and the kon is reported as 105000 M⁻¹ s⁻¹. Work on B24 yielded a Kd of 2.83 nM, a koff of 0.00031 s⁻¹ and a kon of 109000 M⁻¹ s⁻¹. Binder B25 has a Kd of 5.76 nM, a koff of 0.000598 s⁻¹ and a kon of 104000 M⁻¹ s⁻¹. B26 showed a Kd of 2.61 nM, a koff of 0.000246 s⁻¹ and a kon of 94300 M⁻¹ s⁻¹. Binder B27 has a Kd of 5.3 nM, a koff of 0.000558 s⁻¹ and a kon of 105000 M⁻¹ s⁻¹. In the case of B28, the Kd is reported as 8.4 nM, the koff is reported as 0.000874 s⁻¹ and the kon is reported as 104000 M⁻¹ s⁻¹.
